The subject of this data set is healthy Balb/c mice. Description: Toxicity study, hematology (same groups as A3). Type of data set: in vivo, mouse. The note with it: 5, 11, 19, 30, 43 wk, mean±SD. How it is done: Five different experimental groups (10 male and 10 female healthy animals per group; n = 100) were included in the radiotoxicity study and treated as follows: control group 1: 3 × vehicle (PBS + kolliphor HS 15 (1 mg/mL)); control group 2: 3 × 1200 pmol [^175Lu]Lu-NeoB; treatment group 1: 3 × 40 MBq/400 pmol [^177Lu]Lu-NeoB; treatment group 2: 3 × 80 MBq/800 pmol [^177Lu]Lu-NeoB; and treatment group 3: 3 × 120 MBq/1200 pmol [^177Lu]Lu-NeoB.
Animals received 3 injections with an interval of 7 days between each injection.
Throughout the study, the animals were observed daily to check for physical signs of toxicity and signs of discomfort, and animals were weighed 2–3 times per week. Furthermore, at week -1, 5, 11, 19, 30, and 43, blood samples were collected by submandibular puncture from all animals that were in the study at that time point. All blood samples were analyzed for hematological parameters (hematocrit; hemoglobin; red blood cell count; white blood cell count; hemoglobin; mean cell hemoglobin concentration; mean cell volume; platelet count) on the scilVet abc + counter (Covetrus).

“And” between values parts separate entries of the source, which are not always exact repeats. Equal values may be shown once.

Consider 1 compound from PMC9605926, “Safety of [^177Lu]Lu-NeoB treatment: a preclinical study characterizing absorbed dose and acute, early, and late organ toxicity” (European Journal of Nuclear Medicine and Molecular Imaging, 2022).

Take `CC(C)CC(CC(C)C)NC(=O)[C@H](Cc1cnc[nH]1)NC(=O)CNC(=O)[C@@H](NC(=O)[C@H](C)NC(=O)[C@H](Cc1c[nH]c2ccccc12)NC(=O)[C@H](CCC(N)=O)NC(=O)[C@@H](Cc1ccccc1)NC(=O)COCC(=O)Nc1ccc(CNC(=O)CN2CCN(CC(=O)O)CCN(CC(=O)O)CCN(CC(=O)O)CC2)cc1)C(C)C` [[^177Lu]Lu-NeoB, metal not drawn]: the WBC is 6.20 ± 2.24 103/mm3 and 7.60 ± 3.77 103/mm3 and 6.80 ± 1.64 103/mm3 and 9.70 ± 2.96 103/mm3 and 7.20 ± 3.97 103/mm3 (female, treatment group 1); 9.10 ± 3.17 103/mm3 and 5.89 ± 2.56 103/mm3 and 7.97 ± 2.09 103/mm3 and 6.74 ± 1.77 103/mm3 and 8.98 ± 1.67 103/mm3 (female, treatment group 2); 8.08 ± 2.38 103/mm3 and 8.53 ± 1.17 103/mm3 and 8.12 ± 1.98 103/mm3 and 9.77 ± 2.82 103/mm3 and 7.53 ± 0.83 103/mm3 (male, treatment group 1); 7.30 ± 2.24 103/mm3 and 6.65 ± 2.80 103/mm3 and 9.61 ± 1.52 103/mm3 and 8.68 ± 0.34 103/mm3 and 11.13 ± 3.50 103/mm3 (male, treatment group 2).
